According to US20070036781A1:

Columns and labels:
[1] = target: T1, short form of human CCRL2 (CRAM-B) (human) (UniProt O00421); test: cell-based or functional assay
T1 sequence: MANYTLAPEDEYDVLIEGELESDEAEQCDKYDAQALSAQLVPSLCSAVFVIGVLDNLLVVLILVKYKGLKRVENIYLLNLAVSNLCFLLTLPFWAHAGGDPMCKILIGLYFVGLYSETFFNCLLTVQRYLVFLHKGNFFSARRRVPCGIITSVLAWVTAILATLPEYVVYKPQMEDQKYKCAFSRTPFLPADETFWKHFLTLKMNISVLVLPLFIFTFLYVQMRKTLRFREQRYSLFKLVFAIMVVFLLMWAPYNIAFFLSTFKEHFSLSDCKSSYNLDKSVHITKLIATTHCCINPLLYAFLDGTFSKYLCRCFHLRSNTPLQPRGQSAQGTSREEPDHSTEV

[2] = target: Corticotropin Releasing Factor Receptor (CRFR), CRF-R1 (UniProt P34998); test: cell-based or functional assay
Chain of UniProt P34998 (P34998 24-415 limits assumed): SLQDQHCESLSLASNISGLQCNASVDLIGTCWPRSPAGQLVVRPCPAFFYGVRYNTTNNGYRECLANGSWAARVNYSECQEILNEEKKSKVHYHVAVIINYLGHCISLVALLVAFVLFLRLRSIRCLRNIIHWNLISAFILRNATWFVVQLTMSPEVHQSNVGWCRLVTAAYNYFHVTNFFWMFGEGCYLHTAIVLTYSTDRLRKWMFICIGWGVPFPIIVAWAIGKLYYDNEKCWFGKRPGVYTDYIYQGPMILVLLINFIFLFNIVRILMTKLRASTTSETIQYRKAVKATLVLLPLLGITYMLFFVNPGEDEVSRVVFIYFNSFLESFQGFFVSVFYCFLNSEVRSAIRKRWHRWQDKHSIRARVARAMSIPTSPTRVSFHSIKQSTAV

“Monocyte chemotactic protein-3 (MCP-3) (from UniProt P80098 24-99) (ligand)” gave a LacZ activity, Gi2-transplant yeast, 10^-6 M ligand [1] of 2.2 LacZ units and a chemotaxis of CCRL2 transfected cells, 10 nM chemokine; more cells passing across the membrane than untreated cells [1] of 35%.

In the case of “Monocyte chemotactic protein-1 (MCP-1) (from UniProt P13500 24-99) (ligand)”, the LacZ activity, Gq-transplant yeast, 10^-6 M ligand [1] is reported as 5.7 LacZ units.

B1: Urocortin (peptide, UniProt P55089 83-122, looked up)
peptide: DNPSLSIDLTFHLLRTLLELARTQSQRERAEQNRIIFDSV
B1 gave a LacZ activity, Gq-transplant yeast, 10^-6 M ligand [2] of 6.9 LacZ units.

B2: macrophage inflammatory protein-4 (MIP-4) (ligand)
chain: AQVGTNKELCCLVYTSWQIPQKFIVDYSETSPQCPKPGVILLTKRGRQICADPNKKWVQKYISDLKLNA
B2 was tested, and the LacZ activity, Gi3-transplant yeast, 10^-6 M ligand [1] was 6.5 LacZ units and the chemotaxis of CCRL2 transfected cells, 10 nM chemokine; more cells passing across the membrane than untreated cells [1] was 35%.

B3: Corticotrophin releasing factor (CRF) (peptide, UniProt P06850 154-194, looked up)
peptide: SEEPPISLDLTFHLLREVLEMARAEQLAQQAHSNRKLMEII
Work on B3 yielded a LacZ activity, Gi2-transplant yeast, 10^-6 M ligand [2] of 6.4 LacZ units and a LacZ activity, Gi3-transplant yeast, 10^-6 M ligand [2] of 17.2 LacZ units.
